{
  "source": "paper PMC9601244",
  "binders": {"B1": {"name": "NGAL truncated aptamer, biotinylated (26-base) (ssDNA)", "DNA": "ATGGCGGAGCTGGATAGTATAGTCGG"}},
  "molecular_target": "NGAL (neutrophil gelatinase-associated lipocalin) (UniProt P80188 24-198, C107S)",
  "sequence (P80188 24-198 C107S)": "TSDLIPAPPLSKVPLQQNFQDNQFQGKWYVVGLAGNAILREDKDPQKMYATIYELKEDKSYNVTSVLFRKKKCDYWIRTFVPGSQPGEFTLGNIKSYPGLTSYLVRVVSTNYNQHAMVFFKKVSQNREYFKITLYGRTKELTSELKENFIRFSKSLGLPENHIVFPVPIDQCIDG",
  "assay": "dipstick lateral-flow sandwich assay",
  "data": [
    {"binder": "B1", "values": [
      {"measurement": "binding result", "value": "binds"}
    ]}
  ]
}
